According to article PMC4178959 (The Journal of Cell Biology, 2014):
“And” between values parts separate entries of the source, which are not always exact repeats. Identical values can stand only once.

B1: His6-BakΔTM (recombinant His-tagged Bak lacking the transmembrane domain, aa 1–186) (domain or fragment, UniProt Q16611 1-186, looked up)
chain: MASGQGPGPPRQECGEPALPSASEEQVAQDTEEVFRSYVFYRHQQEQEAEGVAAPADPEMVTLPLQPSSTMGQVGRQLAIIGDDINRRYDSEFQTMLQHLQPTAENAYEYFTKIATSLFESGINWGRVVALLGFGYRLALHVYQHGLTGFLGQVTRFVVDFMLHHCIARWIAQRGGWVAALNLGNG

What was measured:
[1] = molecular target: B1; assay: SPR
GST-Casp8p41 V150A/L157A = GST-Casp8p41 V150A/L157A (UniProt Q14790 1-355, V150A | L157A); assay: SPR
GST-Casp8p41 = GST-Casp8p41 (UniProt Q14790 1-355); assay: SPR
GST-Casp8p41 V150E/L157K = GST-Casp8p41 V150E/L157K (UniProt Q14790 1-355, V150E | L157K); assay: SPR
cross-linking = molecular target: the molecule itself; assay: cross-linking

RPEIWIAQELRRIGDEFNAYYARRVF [Bim BH3 peptide]: binds [1].

With B1 the Kd (GST-Casp8p41 V150A/L157A) was 22 nM, the Kd (GST-Casp8p41) was 16 nM and 19 nM and the Kd (GST-Casp8p41 V150E/L157K) was 400 nM. For the same binder, the “stoichiometry N” value (cross-linking) was 2.

B2: GST–procaspase 8 (full-length procaspase 8 fused to GST) (natural protein, UniProt Q14790 1-479, looked up)
chain: MDFSRNLYDIGEQLDSEDLASLKFLSLDYIPQRKQEPIKDALMLFQRLQEKRMLEESNLSFLKELLFRINRLDLLITYLNTRKEEMERELQTPGRAQISAYRVMLYQISEEVSRSELRSFKFLLQEEISKCKLDDDMNLLDIFIEMEKRVILGEGKLDILKRVCAQINKSLLKIINDYEEFSKERSSSLEGSPDEFSNGEELCGVMTISDSPREQDSESQTLDKVYQMKSKPRGYCLIINNHNFAKAREKVPKLHSIRDRNGTHLDAGALTTTFEELHFEIKPHDDCTVEQIYEILKIYQLMDHSNMDCFICCILSHGDKGIIYGTDGQEAPIYELTSQFTGLKCPSLAGKPKVFFIQACQGDNYQKGIPVETDSEEQPYLEMDLSSPQTRYIPDEADFLLGMATVNNCVSYRNPAEGTWYIQSLCQSLRERCPRGDDILTILTEVNYEVSNKDDKKNMGKQMPQPTFTLRKKLVFPSD
In the case of B2, the “fold less tight binding than GST-Casp8p41” value [1] is reported as 100 fold.
